Measurements taken from article PMC11270187.

Molecular target: HLA-DR on BJAB cells (human (endogenous in BJAB))
Experiment: flow cytometry on cells; full antibody titration of purified IgGs on HLA-DR-expressing BJAB cells, Fc Block, 1 h at 4 °C, detected with AF488 goat anti-human IgG Fcγ; also after storage of the IgGs at -20, 4 or 40 °C for up to 4 weeks

B1: humanized 44H10 version 17 IgG (antibody, V domains shown)
VH: QVTLKESGPVLVKPTETLTLTCTVSGFSLTSYGVHWIRQPPGKALEWLAVIWAGGSISYSTSLMSRLTISKDTSKSQVVLTMTNMDPVDTATYYCARAYGDYVHYAMDYWGQGTLVTVSS
VL: DIQMTQSPSSLSASVGDRVTITCRASQEISGYLTWLQQKPGKAPKLLIYAASTLDSGVPSRFSGSGSGTDFTLTISSLQPEDFATYYCLQYTNYPLTFGQGTKLEIK
fold difference in EC50 against parental 44H10: > 50 fold
